# Measurements published in the supplement of paper PMC9112550, “Optimization of the antimicrobial peptide Bac7 by deep mutational scanning” (BMC Biology, 2022).
# System: Escherichia coli TOP10
# Assay: shrunken log2 fold change of peptide-encoding DNA abundance (4.5 h post-induction vs induction); higher = less antimicrobial activity (less host growth inhibition)
# Settings: time post-induction: 4.5 h; library: site-saturation at positions 5, 18, 19, 20
# 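Note: peptides expressed intracellularly from a pBAD plasmid library in pooled LB shake-flask culture, induced with 0.3% L-arabinose, DNA abundance read by NGS, three biological replicates, DESeq2 with apeglm shrinkage.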
row,Sequence,shrunken log2 fold change
1,RRIRLRPPRLPRPRPRPAKKPRP,0.0858
2,RRIRIRPPRLPRPRPRPSCEPRP,-0.17
3,RRIRPRPPRLPRPRPRPPLTPRP,0.274
4,RRIRRRPPRLPRPRPRPHTEPRP,-0.0233
5,RRIRIRPPRLPRPRPRPHHVPRP,-0.091
6,RRIRERPPRLPRPRPRPCNEPRP,-1.12
7,RRIRSRPPRLPRPRPRPTLYPRP,0.0585
8,RRIRIRPPRLPRPRPRPTDVPRP,-0.444
9,RRIRMRPPRLPRPRPRPSWAPRP,0.203
10,RRIRQRPPRLPRPRPRPNSVPRP,-0.265
11,RRIRDRPPRLPRPRPRPLLIPRP,0.338
12,RRIRSRPPRLPRPRPRPDTGPRP,-0.00127
13,RRIRYRPPRLPRPRPRPTEAPRP,0.0329
14,RRIRNRPPRLPRPRPRPYYLPRP,-0.673
15,RRIRRRPPRLPRPRPRPVNSPRP,-0.0287
16,RRIRNRPPRLPRPRPRPRTYPRP,-0.571
17,RRIRDRPPRLPRPRPRPIQVPRP,-0.0916
18,RRIRNRPPRLPRPRPRPLNVPRP,-0.0912
19,RRIRKRPPRLPRPRPRPKYSPRP,-0.13
20,RRIRARPPRLPRPRPRPTNLPRP,0.0653
21,RRIRDRPPRLPRPRPRPFQFPRP,-0.324
22,RRIRNRPPRLPRPRPRPWCGPRP,-0.263
23,RRIRRRPPRLPRPRPRPYLEPRP,-0.298
24,RRIRARPPRLPRPRPRPDWLPRP,0.432
25,RRIRWRPPRLPRPRPRPGEVPRP,-0.0252

row,Sequence,shrunken log2 fold change
1,RRIRARPPRLPRPRPRPSRNPRP,-0.0178
2,RRIRWRPPRLPRPRPRPYLEPRP,-0.112
3,RRIRLRPPRLPRPRPRPATCPRP,-0.597
4,RRIRDRPPRLPRPRPRPQRTPRP,0.0905
5,RRIRKRPPRLPRPRPRPSYEPRP,-0.304
6,RRIRARPPRLPRPRPRPRFAPRP,0.513
7,RRIRLRPPRLPRPRPRPKTNPRP,-0.0556
8,RRIRTRPPRLPRPRPRPMRVPRP,-0.036
9,RRIRIRPPRLPRPRPRPHRQPRP,-0.152
10,RRIRRRPPRLPRPRPRPQEAPRP,0.0364
11,RRIRQRPPRLPRPRPRPLIDPRP,-0.206
12,RRIRKRPPRLPRPRPRPSQYPRP,-0.21
13,RRIRLRPPRLPRPRPRPERKPRP,-0.0366
14,RRIRYRPPRLPRPRPRPTMLPRP,-0.54
15,RRIRIRPPRLPRPRPRPDAFPRP,-0.15
16,RRIRKRPPRLPRPRPRPSLMPRP,0.256
17,RRIRNRPPRLPRPRPRPRVCPRP,0.205
18,RRIRKRPPRLPRPRPRPYWAPRP,-0.448
19,RRIRYRPPRLPRPRPRPKYSPRP,-0.274
20,RRIRERPPRLPRPRPRPHLFPRP,-0.178
21,RRIRYRPPRLPRPRPRPVDMPRP,-0.0154
22,RRIRPRPPRLPRPRPRPKRFPRP,0.297
23,RRIRYRPPRLPRPRPRPMAKPRP,-0.0343
24,RRIRWRPPRLPRPRPRPDWQPRP,0.00408
25,RRIRTRPPRLPRPRPRPGGNPRP,-0.264

row,Sequence,shrunken log2 fold change
1,RRIRERPPRLPRPRPRPPLRPRP,0.135
2,RRIRPRPPRLPRPRPRPYILPRP,-0.588
3,RRIRFRPPRLPRPRPRPSPFPRP,0.0724
4,RRIRQRPPRLPRPRPRPWNLPRP,-0.0507
5,RRIRDRPPRLPRPRPRPNQLPRP,-0.0966
6,RRIRMRPPRLPRPRPRPPHFPRP,1.03
7,RRIRWRPPRLPRPRPRPGFAPRP,0.382
8,RRIRFRPPRLPRPRPRPCHQPRP,-0.188
9,RRIRNRPPRLPRPRPRPHDKPRP,-0.313
10,RRIRLRPPRLPRPRPRPLAKPRP,0.0773
11,RRIRWRPPRLPRPRPRPDKVPRP,0.0749
12,RRIRLRPPRLPRPRPRPNMWPRP,-0.235
13,RRIRCRPPRLPRPRPRPHESPRP,-0.123
14,RRIRHRPPRLPRPRPRPICLPRP,-0.225
15,RRIRGRPPRLPRPRPRPIYAPRP,0.14
16,RRIRERPPRLPRPRPRPRHIPRP,-0.643
17,RRIRQRPPRLPRPRPRPWVKPRP,0.0219
18,RRIRTRPPRLPRPRPRPVFEPRP,-0.289
19,RRIRVRPPRLPRPRPRPRMQPRP,0.123
20,RRIRMRPPRLPRPRPRPKKMPRP,0.249
21,RRIRPRPPRLPRPRPRPYDYPRP,-0.355
22,RRIRERPPRLPRPRPRPHKTPRP,0.0137
23,RRIRWRPPRLPRPRPRPIYEPRP,-0.355
24,RRIRQRPPRLPRPRPRPRTKPRP,0.0706
25,RRIRPRPPRLPRPRPRPNHSPRP,-0.553
